The target of one assay is HLA-B*46:01. In words: IEDB peptide-MHC binding, purified MHC/competitive/fluorescence; filed as Kd, often an IC50 or EC50 that approximates it; ≥ and ≤ were set here for values at or beyond the usual limits of such assays.
For assay [1], the target named is HLA-B*39:01. The description is as above.
The target in assay [2] is HLA-A*02:11. The assay is described as above.
Assay [3] has as its target HLA-A*02:12. The assay is described as above.
The target in assay [4] is HLA-A*02:03. The description is as above.
Assay [5] has as its target HLA-A*02:16. Described as above.
For the next assay, the target named is HLA-A*68:02. The assay is described as above.
In another assay the target is HLA-B*51:01. The description is as above.
The target in a further assay is HLA-A*69:01. Described as above.
The target in assay [6] is HLA-A*03:01. Described as above.
Assay [7] has as its target HLA-A*24:03. The assay is described as above.
Assay [8] deals with HLA-A*02:19. The description is as above.
The next assay concerns the target HLA-B*15:01. The assay is described as above.
For another assay, the target named is HLA-A*02:01. Described as above.
The target in the next assay is HLA-B*18:01. The description is as above.
For the next assay, the target named is HLA-A*26:01. The assay is described as above.
Another assay concerns the target HLA-B*57:01. The assay is described as above.
Another assay has as its target HLA-B*27:03. The assay is described as above.
Assay [9] concerns the target HLA-B*39:01. In words: IEDB peptide-MHC binding, purified MHC/direct/fluorescence; filed as Kd, often an IC50 or EC50 that approximates it; ≥ and ≤ were set here for values at or beyond the usual limits of such assays. The conditions noted are these: source organism: Orthohantavirus sinnombreense.
The target in assay [10] is HLA-A*02:11. The assay is described as above. The following applies: source organism: Limestone Canyon virus.
The target in assay [11] is HLA-A*02:12. Described as above. The conditions noted are these: source organism: Limestone Canyon virus.
Assay [12] addresses HLA-A*02:03. The assay is described as above. The conditions noted are these: source organism: Limestone Canyon virus.
Assay [13] deals with HLA-A*02:16. The description is as above. The following applies: source organism: Limestone Canyon virus.
The target in assay [14] is HLA-A*03:01. The assay is described as above. The conditions noted are these: source organism: Limestone Canyon virus.
Assay [15] has as its target HLA-A*24:03. The description is as above. The following applies: source organism: Limestone Canyon virus.
Assay [16] concerns the target HLA-A*02:19. The description is as above. The following applies: source organism: Limestone Canyon virus.
A further assay addresses HLA-A*29:02. Described as above. The following applies: source organism: Limestone Canyon virus.
In another assay the target is HLA-B*15:17. In words: IEDB peptide-MHC binding, purified MHC/competitive/fluorescence; filed as Kd, often an IC50 or EC50 that approximates it; ≥ and ≤ were set here for values at or beyond the usual limits of such assays. The conditions noted are these: source organism: Homo sapiens.
The mark [17] stands for this setting: source organism: Listeria monocytogenes serotype 4b str. H7858.
[18] abbreviates: source organism: Orthohantavirus sinnombreense.

One may read the Kd as the constant that tells how readily two partners part at equilibrium. A lower Kd goes with a tighter complex.

Take ITWPRTRHW: the Kd in the assay with HLA-B*46:01 (setting [17]), with HLA-B*39:01 [1] (setting [17]), in the assay with HLA-A*02:11 [2] (setting [17]), with HLA-A*02:12 [3] (setting [17]), with HLA-A*02:03 [4] (setting [17]) and with HLA-A*02:16 [5] (setting [17]) was no less than 20 µM throughout. Further, the Kd with HLA-A*68:02 (setting [17]), with HLA-B*51:01 (setting [17]), with HLA-A*69:01 (setting [17]), with HLA-A*03:01 [6] (setting [17]), with HLA-A*24:03 [7] (setting [17]) and in the assay with HLA-A*02:19 [8] (setting [17]) was no less than 20 µM each time. The dissociation constant Kd was no less than 20 µM with HLA-B*15:01 (setting [17]); no less than 20 µM with HLA-A*02:01 (setting [17]); no less than 20 µM with HLA-B*18:01 (setting [17]); no less than 20 µM with HLA-A*26:01 (setting [17]); 0.033 µM with HLA-B*57:01 (setting [17]); no less than 20 µM with HLA-B*27:03 (setting [17]).

Regarding YKSRCYVGL, the Kd with HLA-B*46:01 (setting [18]), with HLA-B*51:01 (setting [18]), with HLA-B*15:01 (setting [18]), with HLA-A*02:01 (setting [18]), with HLA-B*18:01 (setting [18]) and with HLA-A*26:01 (setting [18]) was no less than 20 µM in each case. The equilibrium dissociation constant (Kd) in the assay with HLA-B*57:01 (setting [18]) is no less than 20 µM; in the assay with HLA-B*27:03 (setting [18]), no less than 20 µM; in the assay with HLA-B*39:01 [9], 0.293 µM; in the assay with HLA-A*02:11 [10] it was no less than 20 µM; with HLA-A*02:12 [11], no less than 20 µM; with HLA-A*02:03 [12], no less than 20 µM. The Kd in the assay with HLA-A*02:16 [13], in the assay with HLA-A*03:01 [14], in the assay with HLA-A*24:03 [15], in the assay with HLA-A*02:19 [16] and with HLA-A*29:02 was no less than 20 µM in each case.

With FWAWSVLRV, the Kd with HLA-B*46:01 (source organism: Homo sapiens), with HLA-B*39:01 [1] (source organism: Homo sapiens), with HLA-A*02:11 [2] (source organism: Homo sapiens), in the assay with HLA-A*02:12 [3] (source organism: Homo sapiens), in the assay with HLA-A*02:03 [4] (source organism: Homo sapiens) and in the assay with HLA-A*02:16 [5] (source organism: Homo sapiens) was no less than 20 µM throughout. The Kd with HLA-A*68:02 (source organism: Homo sapiens), with HLA-A*69:01 (source organism: Homo sapiens), in the assay with HLA-A*03:01 [6] (source organism: Homo sapiens), in the assay with HLA-A*24:03 [7] (source organism: Homo sapiens), with HLA-A*02:19 [8] (source organism: Homo sapiens) and with HLA-B*15:01 (source organism: Homo sapiens) was no less than 20 µM in each case. Besides, the Kd with HLA-B*15:17, in the assay with HLA-A*02:01 (source organism: Homo sapiens), in the assay with HLA-B*18:01 (source organism: Homo sapiens), with HLA-A*26:01 (source organism: Homo sapiens), with HLA-B*57:01 (source organism: Homo sapiens) and in the assay with HLA-B*27:03 (source organism: Homo sapiens) was no less than 20 µM throughout.
